In patent US20250129329A1, “CULTURE MEDIUM FOR HEPATOMA ORGANOID CULTURE, HEPATOMA ORGANOID CULTURE METHOD, AND APPLICATION THEREOF” (PRECEDO PHARMACEUTICALS CO., LTD, priority 2021, published 2025):

Tested on: hepatoma organoids isolated from liver cancer tissue
Assay: Effects of medium additives on proliferation of hepatoma organoids (Example 1)
Assay type: cell-based, human
Conditions: additive in basic medium at the final concentration; organoid diameters after 7 days compared with Basic Medium
Procedure: First, a basic medium containing initial medium was prepared. […] In this embodiment, the formulation of the basic medium is: DMEM/F12 medium (purchased from Corning)+100 μg/mL Primocin (purchased from InvivoGen, 0.2% (v/v), commercial product has a concentration of 50 mg/ml).
Different types of additives (see Table 1) were added to the basic medium to prepare culture mediums for hepatoma organoid with different components.
Tissue samples (intraoperative) of liver cancer solid tumor were obtained from patients by professional medical practitioner of professional medical institutions, and all patients have signed the informed consent. Intraoperative samples having the size of 0.25 cm3 were stored and transported using commercial tissue preservation solution (manufacturer: Miltenyi Biotec).
• 3.1. Tissue samples were transferred from the ultra-clean workbench to a culture dish, and the tissue with blood was removed. […] The completion of digestion was determined via observation every 30 minutes, based on the existing of visible particles or not. • 3.4. […]
The primary liver cancer cells obtained in the above steps were resuspended with pre-cooled DMEM/F12 and counted. […] After 7 days, the cultured organoids were photographed and the diameters of the organoids were measured and compiled, so as to compare the promoting effects of various factors on the proliferation of hepatoma organoids. […]

B1: R-spondin1: R-spondin family protein, medium additive, supplier R&D (protein, UniProt Q2MKA7 21-263, looked up)
R-spondin-1: SRGIKGKRQRRISAEGSQACAKGCELCSEVNGCLKCSPKLFILLERNDIRQVGVCLPSCPPGYFDARNPDMNKCIKCKIEHCEACFSHNFCTKCKEGLYLHKGRCYPACPEGSSAANGTMECSSPAQCEMSEWSPWGPCSKKQQLCGFRRGSEERTRRVLHAPVGDHAACSDTKETRRCTVRRVPCPEGQKRRKGGQGRRENANRNLARKESKEAGAGSRRRKGQQQQQQQGTVGPLTSAGPA
**Q.** B1 was tested. Which “Level of promoting proliferation” value did it give?
**A.** The value was “+”.
